The text below walks through data of article PMC4965137, “Temporal Shift of Circadian-Mediated Gene Expression and Carbon Fixation Contributes to Biomass Heterosis in Maize Hybrids”.

Common to all, as to conditions: protein: recombinant; tags: MBP (pMAL-C2); label: 32P 5' end; blunt
The target of data set [1] is T1, rZmCCA1b (Zea mays B73, UniProt K7U156 1-720). The data set can be described thus: EMSA; 25 mM HEPES-KOH pH 7.5, 75 mM KCl, 2.5 mM DTT, 10% glycerol, 1.25 ng poly-dIdC; 20 fmol probe, 0.5-2 pmol protein; 10 min room temperature then 20 min on ice with probe; 5% native PAGE. (In general: Mobility shift assays separate free from complexed probe on a gel.)
Data set [2] concerns the target T1, rZmCCA1b. The data set is described as follows: EMSA; self-competed by 25-100X unlabeled DNA; 25 mM HEPES-KOH pH 7.5, 75 mM KCl, 2.5 mM DTT, 10% glycerol, 1.25 ng poly-dIdC; 20 fmol probe, 0.5-2 pmol protein; 10 min room temperature then 20 min on ice with probe; 5% native PAGE.
Another data set has as its target rZmCCA1a (Zea mays B73, UniProt B6SPA3 129-718). The data set is described as follows: EMSA; 1 pmol protein; 25 mM HEPES-KOH pH 7.5, 75 mM KCl, 2.5 mM DTT, 10% glycerol, 1.25 ng poly-dIdC; 20 fmol probe, 0.5-2 pmol protein; 10 min room temperature then 20 min on ice with probe; 5% native PAGE.

T1 sequence (K7U156 entry or part of it): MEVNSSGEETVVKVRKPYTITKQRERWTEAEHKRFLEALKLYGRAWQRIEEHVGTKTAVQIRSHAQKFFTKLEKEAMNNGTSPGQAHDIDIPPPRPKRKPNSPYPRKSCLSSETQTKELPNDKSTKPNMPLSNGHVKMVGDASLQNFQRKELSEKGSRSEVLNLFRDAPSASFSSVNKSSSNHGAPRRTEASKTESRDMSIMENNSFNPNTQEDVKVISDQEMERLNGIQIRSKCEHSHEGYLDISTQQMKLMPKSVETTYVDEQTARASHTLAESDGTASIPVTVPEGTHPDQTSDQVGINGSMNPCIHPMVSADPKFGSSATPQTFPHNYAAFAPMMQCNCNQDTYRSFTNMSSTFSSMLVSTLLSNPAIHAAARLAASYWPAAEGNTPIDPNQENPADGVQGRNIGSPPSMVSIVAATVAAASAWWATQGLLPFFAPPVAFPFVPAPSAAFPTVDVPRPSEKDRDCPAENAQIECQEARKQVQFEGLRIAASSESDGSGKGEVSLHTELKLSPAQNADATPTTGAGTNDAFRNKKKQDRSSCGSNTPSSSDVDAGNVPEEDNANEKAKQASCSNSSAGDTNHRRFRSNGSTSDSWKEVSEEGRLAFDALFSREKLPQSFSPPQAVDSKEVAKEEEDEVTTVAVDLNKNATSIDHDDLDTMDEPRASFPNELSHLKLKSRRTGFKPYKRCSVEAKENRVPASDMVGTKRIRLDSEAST
rZmCCA1a, sequence (B6SPA3 entry or part of it): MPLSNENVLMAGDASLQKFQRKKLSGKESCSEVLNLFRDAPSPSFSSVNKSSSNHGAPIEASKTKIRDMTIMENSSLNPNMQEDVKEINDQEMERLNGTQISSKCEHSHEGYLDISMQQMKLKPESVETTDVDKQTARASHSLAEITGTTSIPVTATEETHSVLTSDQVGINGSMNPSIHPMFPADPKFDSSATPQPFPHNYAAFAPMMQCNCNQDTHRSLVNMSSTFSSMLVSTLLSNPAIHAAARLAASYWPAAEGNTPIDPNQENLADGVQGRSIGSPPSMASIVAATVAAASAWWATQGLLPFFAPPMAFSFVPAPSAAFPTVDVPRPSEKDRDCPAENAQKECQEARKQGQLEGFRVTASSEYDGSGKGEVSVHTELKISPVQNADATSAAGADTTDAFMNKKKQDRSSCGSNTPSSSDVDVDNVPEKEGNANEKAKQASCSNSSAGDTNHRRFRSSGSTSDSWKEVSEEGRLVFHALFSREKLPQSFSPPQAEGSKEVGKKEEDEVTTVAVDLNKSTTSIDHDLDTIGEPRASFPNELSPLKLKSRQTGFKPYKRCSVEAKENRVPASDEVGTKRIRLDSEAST

B1: GRMZM2G129513 promoter probe (dsDNA)
DNA 1: ATTAAATATAAAAATATCTAAATTCATAA
DNA 2: TTATGAATTTAGATATTTTTATATTTAAT
For B1, in the data set with rZmCCA1b [1], the binding result is on record as “binds”.

B2: ZmPRR59 promoter probe (dsDNA)
DNA 1: CTCTTTAAAAAAAAATCTTCATTTAAGG
DNA 2: CCTTAAATGAAGATTTTTTTTTAAAGAG
On to B2, for which the binding result was “binds” with rZmCCA1b [2] and “no binding” with rZmCCA1a.

B3: gi1 promoter probe (dsDNA)
DNA 1: GCATCGCGGAAAAAATCTTTTTCTCGCC
DNA 2: GGCGAGAAAAAGATTTTTTCCGCGATGC
Consider B3, for which the values for the binding result in the data set with rZmCCA1b [2] and with rZmCCA1a were “binds” and “no binding”, respectively.

B4: ZmTOC1a promoter probe (dsDNA)
DNA 1: GGCGAGTTTTAGATATTTTCACCCGCTCC
DNA 2: GGAGCGGGTGAAAATATCTAAAACTCGCC
As for B4, the binding result with rZmCCA1b [2] is “binds”; in the data set with rZmCCA1a, “no binding”.

B5: GRMZM2G033885 promoter probe (dsDNA)
DNA 1: TCAGCACTGAAAAATATCTGAGGTTGAAA
DNA 2: TTTCAACCTCAGATATTTTTCAGTGCTGA
With B5, the binding result in the data set with rZmCCA1b [1] is reported as “binds”.
